Test [1] concerns the target T1, FimA-FimAt (the two subunits of the ternary FimCAA complex) (E. coli) (UniProt P04128).
T1 sequence (P04128 24-182, looked up): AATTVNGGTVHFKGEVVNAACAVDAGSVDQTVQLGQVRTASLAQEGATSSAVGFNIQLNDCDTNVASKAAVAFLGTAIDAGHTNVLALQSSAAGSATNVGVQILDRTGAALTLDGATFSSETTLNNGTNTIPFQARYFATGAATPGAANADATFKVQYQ
The test is described as follows: chaperone exchange kinetics followed by analytical cation exchange chromatography; 4 μM complex incubated with a 9-fold molar excess (36 μM) of the differently tagged FimC (untagged FimC against FimCHis complexes, FimCHis against FimCA and FimCAA); 20 mM MES-NaOH pH 6.0, 37 °C; single-exponential fit.

The target in test [2] is Fluorescein-labeled FimDN (E. coli). The test can be described thus: stopped-flow fluorescence kinetics; fluorescein-labeled FimDN (0.4 μM) mixed with different concentrations of FimCI; 23 °C, 20 mM Tris-HCl pH 8.0; traces fitted globally to second-order binding and first-order dissociation.
Sequence of Fluorescein-labeled FimDN (E. coli) (P30130 46-170 limits assumed): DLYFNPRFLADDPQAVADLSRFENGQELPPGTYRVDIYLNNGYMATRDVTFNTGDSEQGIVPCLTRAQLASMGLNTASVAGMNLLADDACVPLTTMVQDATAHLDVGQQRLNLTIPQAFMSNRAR

Sequence of FimC-FimI complex (FimCI) (P31697 37-241): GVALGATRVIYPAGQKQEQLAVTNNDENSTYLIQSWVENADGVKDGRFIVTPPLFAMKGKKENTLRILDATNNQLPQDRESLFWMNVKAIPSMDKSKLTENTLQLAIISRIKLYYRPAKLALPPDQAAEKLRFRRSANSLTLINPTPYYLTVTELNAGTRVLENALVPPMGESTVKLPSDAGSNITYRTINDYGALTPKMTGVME
Sequence of FimC-FimI complex (FimCI) (P39264 20-179): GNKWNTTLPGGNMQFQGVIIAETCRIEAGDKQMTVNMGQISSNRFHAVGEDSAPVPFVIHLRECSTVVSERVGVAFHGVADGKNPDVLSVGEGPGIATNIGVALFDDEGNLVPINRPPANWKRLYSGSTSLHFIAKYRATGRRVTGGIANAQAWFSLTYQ
Sequence of FimC (P31697 37-241): as the sequence (P31697 37-241) above

In test [1], “FimC (from UniProt P31697 37-241) (natural protein)” came in with a dissociation half-life of 17.7 min.
“FimC-FimI complex (FimCI) (from UniProt P31697 37-241; P39264 20-179)”: in test [2], the koff was 94 s⁻¹ and the kon was found to be 1.45e+08 M⁻¹ s⁻¹.

Source of the values: publication PMC10673952.
